In patent publication US20230086530A1:

Tests used:
[1] = molecular target: human CD47 on the cell membrane surface of CD47 positive tumor cells (Raji, NUGC-4, Jurkat) (human) (UniProt Q08722); experiment: FACS on Raji cells, 0.5 µg/mL
[2] = molecular target: human CD47 on the cell membrane surface of CD47 positive tumor cells (Raji, NUGC-4, Jurkat) (human) (UniProt Q08722); experiment: FACS on Raji cells, 0.05 µg/mL

human CD47 on the cell membrane surface of CD47 positive tumor cells (Raji, NUGC-4, Jurkat) (human), sequence (Q08722 19-323): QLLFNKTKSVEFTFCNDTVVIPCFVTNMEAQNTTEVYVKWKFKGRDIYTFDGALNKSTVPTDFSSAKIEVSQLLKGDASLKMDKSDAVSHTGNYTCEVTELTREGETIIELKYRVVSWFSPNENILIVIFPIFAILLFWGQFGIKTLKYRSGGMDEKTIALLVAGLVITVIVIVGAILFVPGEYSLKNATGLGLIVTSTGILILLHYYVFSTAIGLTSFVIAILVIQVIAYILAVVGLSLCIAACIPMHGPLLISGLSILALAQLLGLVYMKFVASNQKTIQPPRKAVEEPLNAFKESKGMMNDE

Mean fluorescence intensity (multiple) [1]: 1 fold
Mean fluorescence intensity (multiple) [2]: 1 fold
Substance: isotype control antibody
